B1: SkAro10p (Saccharomyces kudriavzevii IFO 1802) (protein)
chain: MTPVTINTFVNQKEPHLVSNELATISFGEYIFRRLLSTGTKSVFGVPGDFNLSLLEYLYAPSVESAGLKWIGTCNELNAAYAADGYSRYSNNIGCLVTTFGVGELSALNGVAGSFAENVKVLHIVGVAKSIDSRSDNFRDRNMHHLVPQLHGSNFKGPNHKVYHDMVKDRVACSVAYLEDIETACDQVDNVIRDIYKYSKPGYIFVPADFADMSVTCENLINVPHISQQDCITYPSQIQLFDILDRITSWMYSSKTPAILGDVLTDRYGVSEILNKLIYATGIWNFSTVMGKSVIDEANPKYMGQYNGKEGLRQVYEHFESCDLVLHFGVDINEINNGHYTFTYKPNAKIIQFHPNYIRFVDTKYGHEQMFEGINFAPVLMELYKGIDVSRLSLQYDSGVTSYTNETMQLEDPTNDQSNNITQVHLQKVMPKFLSPGDVVVCETGSFQFSVRDFAFPTQLKYISQGFFLSIGMALPAALGVGIAMQDFPNAHISDENIGEGYKPRLILFEGDGAAQMTIQELSTILKCHITIDIFIWNNNGYTIERAIMGPTRAYNDVMSWKWTKLLEAFGDFDRKHTNSTVIEYPSKLAMKLEELKSSNTRDGIELVEVKLGVLDFPEQLKCMVDAAALKRNKK
notes: full-length ARO10 allele on plasmid pG-SkARO10-kX (pGREG526); expressed in S. cerevisiae CEN.PK 711-7C pdc1 pdc5 pdc6 aro10 thi3 null; cell extract
B2: ScAro10p (Saccharomyces cerevisiae S288C) (protein)
chain: MAPVTIEKFVNQEERHLVSNRSATIPFGEYIFKRLLSIDTKSVFGVPGDFNLSLLEYLYSPSVESAGLRWVGTCNELNAAYAADGYSRYSNKIGCLITTYGVGELSALNGIAGSFAENVKVLHIVGVAKSIDSRSSNFSDRNLHHLVPQLHDSNFKGPNHKVYHDMVKDRVACSVAYLEDIETACDQVDNVIRDIYKYSKPGYIFVPADFADMSVTCDNLVNVPRISQQDCIVYPSENQLSDIINKITSWIYSSKTPAILGDVLTDRYGVSNFLNKLICKTGIWNFSTVMGKSVIDESNPTYMGQYNGKEGLKQVYEHFELCDLVLHFGVDINEINNGHYTFTYKPNAKIIQFHPNYIRLVDTRQGNEQMFKGINFAPILKELYKRIDVSKLSLQYDSNVTQYTNETMRLEDPTNGQSSIITQVHLQKTMPKFLNPGDVVVCETGSFQFSVRDFAFPSQLKYISQGFFLSIGMALPAALGVGIAMQDHSNAHINGGNVKEDYKPRLILFEGDGAAQMTIQELSTILKCNIPLEVIIWNNNGYTIERAIMGPTRSYNDVMSWKWTKLFEAFGDFDGKYTNSTLIQCPSKLALKLEELKNSNKRSGIELLEVKLGELDFPEQLKCMVEAAALKRNKK

Legend:
[1] = substrate: O=C(O)C(=O)Cc1ccccc1; assay: decarboxylase activity, cell extract of decarboxylase-null yeast, Michaelis-Menten; assay type: biochemical, Saccharomyces kudriavzevii; conditions: cell extract from aerobic ethanol-limited chemostat culture, phenylalanine as nitrogen source
[2] = substrate: O=C(O)C(=O)Cc1ccccc1; assay: cells, lysate or membranes; conditions: cell extract from aerobic ethanol-limited chemostat culture, phenylalanine as nitrogen source

Protein	Km [1] [mM]	Km [2] [mM]
B1	0.07 ± 0.005	
B2		0.15 ± 0.01

From article PMC4789280, “Characterisation of the broad substrate specificity 2-keto acid decarboxylase Aro10p of Saccharomyces kudriavzevii and its implication in aroma development” (Microbial Cell Factories, 2016)
